Tests used:
[1] = substrate: O=C(O)c1ccc(O)cc1OCc1ccccc1; experiment: Michaelis-Menten constant against p-hydroxybenzoate hydroxylase (PHBH) from Pseudomonas fluorescence compared with NADPH; details: Pseudomonas fluorescens
[2] = substrate: O=C(O)c1ccc(O)cc1OCc1ccccc1; experiment: Michaelis-Menten constant against p-hydroxybenzoate hydroxylase (PHBH) from Pseudomonas fluorescence compared with p-hydroxy benzoic acid; details: Pseudomonas fluorescens

B1: p-hydroxybenzoate hydroxylase (Pseudomonas fluorescens), P00438 (protein)
chain: MKTQVAIIGAGPSGLLLGQLLHKAGIDNVILERQTPDYVLGRIRAGVLEQGMVDLLREAGVDRRMARDGLVHEGVEIAFAGQRRRIDLKRLSGGKTVTVYGQTEVTRDLMEAREACGATTVYQAAEVRLHDLQGERPYVTFERDGERLRLDCDYIAGCDGFHGISRQSIPAERLKVFERVYPFGWLGLLADTPPVSHELIYANHPRGFALCSQRSATRSRYYVQVPLTEKVEDWSDERFWTELKARLPAEVAEKLVTGPSLEKSIAPLRSFVVEPMQHGRLFLAGDAAHIVPPTGAKGLNLAASDVSTLYRLLLKAYREGRGELLERYSAICLRRIWKAERFSWWMTSVLHRFPDTDAFSQRIQQTELEYYLGSEAGLATIAENYVGLPYEEIE
Km [1]: 57 µM | Km [2]: 21 µM

Source: ChEMBL document CHEMBL1127417, “Multisubstrate inhibition of 4-hydroxybenzoate 3-monooxygenase” (J Med Chem, 1994)
